Source: patent publication US20130101617A1

How the values were obtained:
[1] = target: CCR5 on CF2.CD4.CCR5 cells (Homo sapiens (Human)) (UniProt P51681)
[2] = target: CD4 on CF2.CD4.CCR5 cells (Homo sapiens (Human)) (UniProt P01730)

## JR-FL SOS gp120/gp41 trimer
[1]
  infection of CF2.CD4.CCR5 target cells: 100 % of mock
[2]
  infection of CF2.CD4.CCR5 target cells: 100 % of mock
